Results on 8 sequences are retold here after the Immune Epitope Database (IEDB).

For orientation: Kd means the free concentration of one partner at which half of the binding sites on the other are occupied at equilibrium, for simple one-to-one binding. A word on the IC50: it is the point on the concentration scale where inhibition reaches its midpoint.

The target in experiment [1] is HLA-A*02:01. The experiment in a line: IEDB peptide-MHC binding, purified MHC/competitive/fluorescence; filed as Kd, often an IC50 or EC50 that approximates it; ≥ and ≤ were set here for values at or beyond the usual limits of such assays. The following applies: source organism: Mycobacterium tuberculosis variant bovis BCG str. Pasteur 1173P2.
The target in experiment [2] is HLA-A*02:11. The description is as above. The settings on record: source organism: Mycobacterium tuberculosis variant bovis BCG str. Pasteur 1173P2.
Experiment [3] deals with HLA-B*15:42. The experiment is described as above.
For experiment [4], the target named is HLA-B*27:20. The experiment is described as above.
Experiment [5] has as its target HLA-B*45:06. Described as above.
The target of experiment [6] is HLA-B*83:01. The experiment is described as above.
Experiment [7] has as its target HLA-C*04:01. The experiment is described as above. The settings on record: source organism: Mycobacterium tuberculosis variant bovis BCG str. Pasteur 1173P2.
Experiment [8] addresses HLA-B*07:02. In words: IEDB peptide-MHC binding, purified MHC/competitive/radioactivity; ≥ and ≤ were set here for values at or beyond the usual limits of such assays. The settings on record: source organism: dengue virus type 4.
Experiment [9] addresses HLA-B*35:01. The experiment in a line: IEDB peptide-MHC binding, purified MHC/competitive/radioactivity; filed as Kd, often an IC50 or EC50 that approximates it; ≥ and ≤ were set here for values at or beyond the usual limits of such assays. The following applies: source organism: Dengue virus 4 Philippines/H241/1956.
The target of experiment [10] is HLA-B*53:01. Described as above. The following applies: source organism: Dengue virus 4 Philippines/H241/1956.
For experiment [11], the target named is HLA-A*01:01. In words: IEDB peptide-MHC binding, purified MHC/direct/fluorescence; filed as Kd, often an IC50 or EC50 that approximates it; ≥ and ≤ were set here for values at or beyond the usual limits of such assays.
For experiment [12], the target named is HLA-A*02:01. The experiment is described as above.
Experiment [13] concerns the target HLA-A*03:01. The description is as above.
Experiment [14] concerns the target HLA-A*11:01. The description is as above.
For experiment [15], the target named is HLA-A*26:01. The experiment is described as above. The settings on record: source organism: Vibrio cholerae.
The target of experiment [16] is HLA-A*31:01. Described as above. The following applies: source organism: Vibrio cholerae.
Experiment [17] concerns the target HLA-A*69:01. The description is as above.
Experiment [18] has as its target HLA-B*07:02. The description is as above.
The target of experiment [19] is HLA-B*08:01. Described as above.
For experiment [20], the target named is HLA-B*15:01. The description is as above.
Experiment [21] deals with HLA-B*27:05. Described as above.
Experiment [22] addresses HLA-B*35:01. Described as above. The settings on record: source organism: Vibrio cholerae.
In experiment [23] the target is HLA-B*40:01. The description is as above.
Experiment [24] addresses HLA-B*44:02. Described as above. The following applies: source organism: Vibrio cholerae.
The target of experiment [25] is HLA-B*58:01. The description is as above.
Experiment [26] concerns the target HLA-C*06:02. The experiment is described as above. The settings on record: source organism: Vibrio cholerae 2740-80.
Experiment [27] deals with HLA-C*12:03. The experiment is described as above. The following applies: source organism: Vibrio cholerae 2740-80.
Experiment [28] deals with HLA-A*02:50. The experiment in a line: IEDB peptide-MHC binding, purified MHC/competitive/fluorescence; filed as Kd, often an IC50 or EC50 that approximates it; ≥ and ≤ were set here for values at or beyond the usual limits of such assays. The settings on record: source organism: Vibrio cholerae 2740-80.
The target in experiment [29] is HLA-B*46:01. Described as above. The settings on record: source organism: Vibrio cholerae 2740-80.
Experiment [30] has as its target HLA-B*15:09. In words: IEDB peptide-MHC binding, purified MHC/direct/fluorescence; filed as Kd, often an IC50 or EC50 that approximates it; ≥ and ≤ were set here for values at or beyond the usual limits of such assays. The following applies: source organism: Yersinia pestis CA88-4125.
Experiment [31] deals with HLA-B*15:17. The description is as above. The following applies: source organism: Yersinia pestis.
The target in experiment [32] is HLA-B*18:01. The experiment is described as above. The settings on record: source organism: Yersinia pestis.
Experiment [33] deals with HLA-B*38:01. Described as above. The following applies: source organism: Yersinia pestis CA88-4125.
The target in experiment [34] is HLA-B*39:01. Described as above. The settings on record: source organism: Yersinia pestis CA88-4125.
Experiment [35] has as its target HLA-B*46:01. The experiment is described as above. The following applies: source organism: Yersinia pestis.
In experiment [36] the target is HLA-B*48:01. The experiment is described as above.
The target of experiment [37] is HLA-B*51:01. Described as above. The settings on record: source organism: Yersinia pestis.
For experiment [38], the target named is HLA-B*57:01. The experiment is described as above. The settings on record: source organism: Yersinia pestis.
Experiment [39] concerns the target HLA-A*31:01. In words: IEDB peptide-MHC binding, purified MHC/competitive/fluorescence; filed as Kd, often an IC50 or EC50 that approximates it; ≥ and ≤ were set here for values at or beyond the usual limits of such assays. The settings on record: source organism: Yersinia pestis KIM10+.
The target of experiment [40] is HLA-B*73:01. The description is as above. The settings on record: source organism: Burkholderia mallei SAVP1.
Experiment [41] has as its target HLA-C*07:02. The experiment in a line: IEDB peptide-MHC binding, purified MHC/direct/fluorescence; filed as Kd, often an IC50 or EC50 that approximates it; ≥ and ≤ were set here for values at or beyond the usual limits of such assays. The settings on record: source organism: Yellow fever virus.
In experiment [42] the target is HLA-C*06:02. In words: IEDB peptide-MHC binding, purified MHC/competitive/fluorescence; filed as Kd, often an IC50 or EC50 that approximates it; ≥ and ≤ were set here for values at or beyond the usual limits of such assays. The settings on record: source organism: Yellow fever virus.
Experiment [43] deals with HLA-B*35:01. The experiment in a line: IEDB peptide-MHC binding, purified MHC/competitive/radioactivity; ≥ and ≤ were set here for values at or beyond the usual limits of such assays. The following applies: source organism: Human papillomavirus 16.
In experiment [44] the target is HLA-B*40:02. The experiment in a line: IEDB peptide-MHC binding, cellular MHC/competitive/fluorescence; ≥ and ≤ were set here for values at or beyond the usual limits of such assays. The following applies: source organism: Homo sapiens.
Where [45] appears, read: source organism: Mycobacterium tuberculosis variant bovis BCG str. Pasteur 1173P2.
Where [46] appears, read: source organism: Vibrio cholerae.
The mark [47] stands for this setting: source organism: Yersinia pestis.
Setting [48] is: source organism: Yersinia pestis CA88-4125.
Setting [49] is: source organism: Yellow fever virus.

Consider AEFGPWQTV, for which the Kd in [1] was 1640 nM; in [2], 125 nM; in experiment [3] (setting [45]) it was at least 5000 nM; in experiment [4] (setting [45]), 185 nM; in [5] (setting [45]), at least 5000 nM; in [6] (setting [45]), at least 5000 nM. This sequence registered a Kd in experiment [7] of at least 5000 nM.
Consider LPSIVREAL, for which the IC50 in experiment [8] is 0.31 nM. In addition, the Kd in experiment [9] stood at 82.8 nM; in experiment [10], 40.6 nM.
On to MMFDAMGAL, for which the Kd in [11] (setting [46]) was determined as 11200 nM; in experiment [12] (setting [46]), 328 nM; in experiment [13] (setting [46]), 1460 nM; in experiment [14] (setting [46]) it was 9310 nM; in [15] it was 1230 nM; in experiment [16] it was 921 nM. Moreover, the Kd in experiment [17] (setting [46]) is 33.1 nM; in experiment [18] (setting [46]), 5750 nM; in [19] (setting [46]), 5760 nM; in [20] (setting [46]) it was 37.2 nM; in experiment [21] (setting [46]), at least 20000 nM; in [22] it was 18.4 nM. For the same sequence, the Kd in [23] (setting [46]) was at least 20000 nM; in [24], at least 20000 nM; in experiment [25] (setting [46]) it was at least 20000 nM; in [26] it was 1480 nM; in experiment [27], 46 nM; in [28] it was 0.2 nM. This sequence gave a Kd in [29] of 22.7 nM.
In the case of RPQLWRYRW, the Kd was at least 20000 nM in [11] (setting [47]); at least 20000 nM in [12] (setting [47]); at least 20000 nM in [13] (setting [47]); at least 20000 nM in experiment [14] (setting [47]); at least 20000 nM in experiment [17] (setting [47]); 970 nM in [18] (setting [47]). Besides, the Kd in experiment [19] (setting [48]), in experiment [20] (setting [47]), in experiment [30], in experiment [31], in experiment [32] and in [21] (setting [47]) was at least 20000 nM throughout. Besides, the dissociation constant Kd in experiment [33] is at least 20000 nM; in experiment [34], 3180 nM; in [23] (setting [47]), at least 20000 nM; in experiment [35] it was at least 20000 nM; in experiment [36] (setting [47]), at least 20000 nM; in [37] it was at least 20000 nM. The Kd in [38] came to 343 nM; in experiment [25] (setting [48]), 328 nM; in experiment [39], 1810 nM.
Consider RRFWVGYQQ, for which the Kd in experiment [40] worked out at 893 nM.
RRRLRTLVL: the Kd is 2930 nM in experiment [36] (source organism: Yellow fever virus 17D); 225 nM in experiment [41]; at least 5000 nM in experiment [3] (setting [49]); 0.2 nM in experiment [4] (setting [49]); at least 5000 nM in experiment [5] (setting [49]); at least 5000 nM in experiment [6] (setting [49]). The same sequence registered a Kd in experiment [42] of 50.5 nM.
SAFRCFIVY: the IC50 in experiment [43] worked out at 1.4 nM.
Consider SELSPGRSV, for which the IC50 in experiment [44] was determined as 1100 nM.
